Our source for the max_promiscuity and max_specificity values is publication PMC11369174, “Proteome-scale characterisation of motif-based interactome rewiring by disease mutations” (Molecular Systems Biology, 2024).

For one experiment, the target named is ABL1 SH3 (Homo sapiens, UniProt P00519). As to the kind of experiment: GenVar_HD2 ProP-PD phage selection, ABL1 SH3. It counts as binding. Particulars: bait domain-prey protein level, bait ABL1_SH3__P00519_60_121.
The subject of a further experiment is KPNA4 ARM. The experiment can be described thus: GenVar_HD2 ProP-PD phage selection, KPNA4 ARM. In kind it is binding, human. Particulars: bait-prey protein level, bait_accession O00629.

Sequence of ABL1 SH3 (P00519 60-121): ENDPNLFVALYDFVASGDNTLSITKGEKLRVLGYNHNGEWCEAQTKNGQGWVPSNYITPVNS

B1: FANCG (protein, UniProt O15287 1-622, looked up)
Fanconi anemia group G protein: MSRQTTSVGSSCLDLWREKNDRLVRQAKVAQNSGLTLRRQQLAQDALEGLRGLLHSLQGLPAAVPVLPLELTVTCNFIILRASLAQGFTEDQAQDIQRSLERVLETQEQQGPRLEQGLRELWDSVLRASCLLPELLSALHRLVGLQAALWLSADRLGDLALLLETLNGSQSGASKDLLLLLKTWSPPAEELDAPLTLQDAQGLKDVLLTAFAYRQGLQELITGNPDKALSSLHEAASGLCPRPVLVQVYTALGSCHRKMGNPQRALLYLVAALKEGSAWGPPLLEASRLYQQLGDTTAELESLELLVEALNVPCSSKAPQFLIEVELLLPPPDLASPLHCGTQSQTKHILASRCLQTGRAGDAAEHYLDLLALLLDSSEPRFSPPPSPPGPCMPEVFLEAAVALIQAGRAQDALTLCEELLSRTSSLLPKMSRLWEDARKGTKELPYCPLWVSATHLLQGQAWVQLGAQKVAISEFSRCLELLFRATPEEKEQGAAFNCEQGCKSDAALQQLRAAALISRGLEWVASGQDTKALQDFLLSVQMCPGNRDTYFHLLQTLKRLDRRDEATALWWRLEAQTKGSHEDALWSLPLYLESYLSWIRPSDRDAFLEEFRTSLPKSCDL
For the molecule B1, in the experiment with ABL1 SH3, the max_promiscuity amounted to 5 and the max_specificity stood at 1.

B2: O60934 (protein, UniProt O60934 1-754, looked up)
chain: MWKLLPAAGPAGGEPYRLLTGVEYVVGRKNCAILIENDQSISRNHAVLTANFSVTNLSQTDEIPVLTLKDNSKYGTFVNEEKMQNGFSRTLKSGDGITFGVFGSKFRIEYEPLVACSSCLDVSGKTALNQAILQLGGFTVNNWTEECTHLVMVSVKVTIKTICALICGRPIVKPEYFTEFLKAVESKKQPPQIESFYPPLDEPSIGSKNVDLSGRQERKQIFKGKTFIFLNAKQHKKLSSAVVFGGGEARLITEENEEEHNFFLAPGTCVVDTGITNSQTLIPDCQKKWIQSIMDMLQRQGLRPIPEAEIGLAVIFMTTKNYCDPQGHPSTGLKTTTPGPSLSQGVSVDEKLMPSAPVNTTTYVADTESEQADTWDLSERPKEIKVSKMEQKFRMLSQDAPTVKESCKTSSNNNSMVSNTLAKMRIPNYQLSPTKLPSINKSKDRASQQQQTNSIRNYFQPSTKKRERDEENQEMSSCKSARIETSCSLLEQTQPATPSLWKNKEQHLSENEPVDTNSDNNLFTDTDLKSIVKNSASKSHAAEKLRSNKKREMDDVAIEDEVLEQLFKDTKPELEIDVKVQKQEEDVNVRKRPRMDIETNDTFSDEAVPESSKISQENEIGKKRELKEDSLWSAKEISNNDKLQDDSEMLPKKLLLTEFRSLVIKNSTSRNPSGINDDYGQLKNFKKFKKVTYPGAGKLPHIIGGSDLIAHHARKNTELEEWLRQEMEVQNQHAKEESLADDLFRYNPYLKRRR
modifications: full-length
In the experiment on KPNA4 ARM, B2 displayed a max_promiscuity of 1 and a max_specificity of 1.

B3: O60832 (protein, UniProt O60832 1-514, looked up)
chain: MADAEVIILPKKHKKKKERKSLPEEDVAEIQHAEEFLIKPESKVAKLDTSQWPLLLKNFDKLNVRTTHYTPLACGSNPLKREIGDYIRTGFINLDKPSNPSSHEVVAWIRRILRVEKTGHSGTLDPKVTGCLIVCIERATRLVKSQQSAGKEYVGIVRLHNAIEGGTQLSRALETLTGALFQRPPLIAAVKRQLRVRTIYESKMIEYDPERRLGIFWVSCEAGTYIRTLCVHLGLLLGVGGQMQELRRVRSGVMSEKDHMVTMHDVLDAQWLYDNHKDESYLRRVVYPLEKLLTSHKRLVMKDSAVNAICYGAKIMLPGVLRYEDGIEVNQEIVVITTKGEAICMAIALMTTAVISTCDHGIVAKIKRVIMERDTYPRKWGLGPKASQKKLMIKQGLLDKHGKPTDSTPATWKQEYVDYSESAKKEVVAEVVKAPQVVAEAAKTAKRKRESESESDETPPAAPQLIKKEKKKSKKDKKAKAGLESGAEPGDGDSDTTKKKKKKKKAKEVELVSE
modifications: full-length
In the experiment on KPNA4 ARM, B3 showed a max_promiscuity of 3 and a max_specificity of 1.

B4: ESPN (protein, UniProt B1AK53 1-854, looked up)
Espin: MALEQALQAARQGELDVLRSLHAAGLLGPSLRDPLDALPVHHAARAGKLHCLRFLVEEAALPAAARARNGATPAHDASATGHLACLQWLLSQGGCRVQDKDNSGATVLHLAARFGHPEVVNWLLHHGGGDPTAATDMGALPIHYAAAKGDFPSLRLLVEHYPEGVNAQTKNGATPLYLACQEGHLEVTQYLVQECGADPHARAHDGMTPLHAAAQMGHSPVIVWLVSCTDVSLSEQDKDGATAMHFAASRGHTKVLSWLLLHGGEISADLWGGTPLHDAAENGELECCQILVVNGAELDVRDRDGYTAADLSDFNGHSHCTRYLRTVENLSVEHRVLSRDPSAELEAKQPDSGMSSPNTTVSVQPLNFDLSSPTSTLSNYDSCSSSHSSIKGQHPPCGLSSARAADIQSYMDMLNPELGLPRGTIGKPTPPPPPPSFPPPPPPPGTQLPPPPPGYPAPKPPVGPQAADIYMQTKNKLRHVETEALKKELSSCDGHDGLRRQDSSRKPRAFSKQPSTGDYYRQLGRCPGETLAARPGMAHSEEVRARQPARAGCPRLGPAARGSLEGPSAPPQAALLPGNHVPNGCAADPKASRELPPPPPPPPPPLPEAASSPPPAPPLPLESAGPGCGQRRSSSSTGSTKSFNMMSPTGDNSELLAEIKAGKSLKPTPQSKGLTTVFSGIGQPAFQPDSPLPSVSPALSPVRSPTPPAAGFQPLLNGSLVPVPPTTPAPGVQLDVEALIPTHDEQGRPIPEWKRQVMVRKMQLKMQEEEEQRRKEEEEEARLASMPAWRRDLLRKKLEEEREQKRKEEERQKQEELRREKEQSEKLRTLGYDESKLAPWQRQVILKKGDIAKY
In the experiment with ABL1 SH3, B4 came in with a max_promiscuity of 2 and a max_specificity of 0.8421.
